Source: PMC3656124, “DNA Topoisomerase II Is Involved in Regulation of Cyst Wall Protein Genes and Differentiation in Giardia lamblia” (PLoS Neglected Tropical Diseases, 2013)

Experiments:
Topo II = molecular target: T1, Topo II (Giardia lamblia, UniProt E2RU90 1-1491); assay: EMSA; EMSA: 0.02 pmol 5'-labeled probe, 5 ng protein, 20 ul, 0.5 ug poly(dI-dC), 15 min, room temperature, 6% acrylamide gel; buffer, salt and pH only by citation; settings: protein: recombinant; tags: C-terminal V5-His; chain copies: 2; label: 5'-32P
T1 sequence: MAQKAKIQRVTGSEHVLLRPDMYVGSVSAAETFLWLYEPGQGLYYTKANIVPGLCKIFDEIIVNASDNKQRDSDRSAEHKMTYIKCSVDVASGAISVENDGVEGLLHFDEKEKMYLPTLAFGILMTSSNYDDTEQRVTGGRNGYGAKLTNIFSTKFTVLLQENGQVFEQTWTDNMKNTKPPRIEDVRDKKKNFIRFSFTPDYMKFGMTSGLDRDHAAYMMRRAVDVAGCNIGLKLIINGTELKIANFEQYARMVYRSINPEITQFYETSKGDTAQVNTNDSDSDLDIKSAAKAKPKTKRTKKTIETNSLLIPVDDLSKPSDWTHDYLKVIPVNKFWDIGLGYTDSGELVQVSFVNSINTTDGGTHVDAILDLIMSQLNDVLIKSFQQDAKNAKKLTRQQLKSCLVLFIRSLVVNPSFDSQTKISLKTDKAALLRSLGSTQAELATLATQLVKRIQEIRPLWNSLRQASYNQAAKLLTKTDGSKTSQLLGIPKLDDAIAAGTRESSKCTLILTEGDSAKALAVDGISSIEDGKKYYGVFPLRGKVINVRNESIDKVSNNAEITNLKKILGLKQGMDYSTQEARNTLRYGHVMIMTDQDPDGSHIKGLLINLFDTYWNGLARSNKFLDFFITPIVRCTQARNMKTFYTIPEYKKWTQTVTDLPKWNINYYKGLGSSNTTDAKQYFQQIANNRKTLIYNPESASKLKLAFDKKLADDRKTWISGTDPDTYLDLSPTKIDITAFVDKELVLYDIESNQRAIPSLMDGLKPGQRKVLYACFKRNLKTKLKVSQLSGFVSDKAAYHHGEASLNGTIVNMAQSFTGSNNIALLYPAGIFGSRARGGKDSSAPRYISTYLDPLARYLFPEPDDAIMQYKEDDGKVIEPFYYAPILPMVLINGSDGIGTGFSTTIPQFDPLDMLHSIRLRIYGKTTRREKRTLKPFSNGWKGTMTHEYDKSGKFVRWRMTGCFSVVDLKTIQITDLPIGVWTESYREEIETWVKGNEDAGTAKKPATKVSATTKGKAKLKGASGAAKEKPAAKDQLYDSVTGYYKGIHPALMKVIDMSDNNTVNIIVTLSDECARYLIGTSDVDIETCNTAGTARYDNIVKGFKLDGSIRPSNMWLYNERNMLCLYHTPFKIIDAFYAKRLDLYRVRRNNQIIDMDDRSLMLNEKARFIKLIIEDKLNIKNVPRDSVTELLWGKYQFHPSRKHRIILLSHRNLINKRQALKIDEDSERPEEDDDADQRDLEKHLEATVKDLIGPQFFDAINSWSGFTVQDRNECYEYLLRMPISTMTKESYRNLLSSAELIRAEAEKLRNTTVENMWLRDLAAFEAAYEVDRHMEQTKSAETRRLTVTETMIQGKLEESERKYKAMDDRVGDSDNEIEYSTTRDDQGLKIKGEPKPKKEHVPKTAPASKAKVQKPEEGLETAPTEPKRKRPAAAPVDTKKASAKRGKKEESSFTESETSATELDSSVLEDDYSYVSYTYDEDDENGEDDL

Topo IICm1 = molecular target: T2, Topo IICm1 (Giardia lamblia, UniProt E2RU90 489-1491, Y847H); assay: as above; settings: protein: recombinant; tags: C-terminal V5-His; chain copies: 2; label: 5'-32P
T2 sequence: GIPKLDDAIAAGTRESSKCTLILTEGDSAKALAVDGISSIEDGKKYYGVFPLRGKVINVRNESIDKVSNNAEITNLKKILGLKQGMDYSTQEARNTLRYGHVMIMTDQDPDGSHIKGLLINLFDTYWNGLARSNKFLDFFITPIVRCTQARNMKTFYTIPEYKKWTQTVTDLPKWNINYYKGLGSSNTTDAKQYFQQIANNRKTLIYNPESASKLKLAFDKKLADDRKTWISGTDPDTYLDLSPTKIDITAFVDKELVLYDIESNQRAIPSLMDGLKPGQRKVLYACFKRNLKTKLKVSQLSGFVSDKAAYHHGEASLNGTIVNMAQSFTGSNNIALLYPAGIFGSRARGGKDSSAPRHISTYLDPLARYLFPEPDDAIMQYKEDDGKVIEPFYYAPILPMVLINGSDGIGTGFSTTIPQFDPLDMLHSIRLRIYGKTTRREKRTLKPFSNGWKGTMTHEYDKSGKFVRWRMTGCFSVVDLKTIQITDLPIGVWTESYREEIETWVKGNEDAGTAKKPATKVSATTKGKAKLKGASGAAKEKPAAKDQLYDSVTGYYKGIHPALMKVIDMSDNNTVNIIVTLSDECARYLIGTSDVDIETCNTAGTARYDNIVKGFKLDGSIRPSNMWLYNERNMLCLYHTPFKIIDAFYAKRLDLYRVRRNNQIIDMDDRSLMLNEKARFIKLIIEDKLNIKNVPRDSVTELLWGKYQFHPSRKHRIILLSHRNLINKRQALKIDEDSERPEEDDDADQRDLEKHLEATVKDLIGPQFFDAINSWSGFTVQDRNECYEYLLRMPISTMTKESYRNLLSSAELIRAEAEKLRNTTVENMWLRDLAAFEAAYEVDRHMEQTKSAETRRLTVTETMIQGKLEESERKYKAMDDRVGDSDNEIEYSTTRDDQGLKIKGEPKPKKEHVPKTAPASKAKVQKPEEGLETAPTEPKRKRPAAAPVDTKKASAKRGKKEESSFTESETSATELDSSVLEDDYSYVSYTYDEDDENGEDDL

B1: IIBS (dsDNA)
DNA 1: ATGAAATCTAACAATGCGCTCATCGTCATCCTCGGC
DNA 2: GCCGAGGATGACGATGAGCGCATTGTTAGATTTCAT
Does B1 bind (Topo II)?
Result: binds

Does B1 bind (Topo IICm1)?
Result: binds
